“Also recorded” adds a separate entry of the source.
Columns and labels:
Jurkat T cells [1] = test: TUNEL assay for degraded genomic DNA in transduced Jurkat T cells; assay type: cell-based
Experimental: (§1) Additionally, transduced cultures were tested for degraded genomic DNA by TUNEL assay. See Coates, P. J., Molecular methods for the identification of apoptosis in tissues. J. Histotechnology 17: 261 (1994). […] Activation of TAT-Casp3 was also assayed by its ability to cleave an artificial Caspase-3 substrate. […] See Xiang, J., et al., Bax-induced cell death may not require interleukin 1B-converting enzyme-like proteases. Proc. Natl. Acad. Sci. USA 93: 14550 (1996).
(§2) The HIV Protease activates TAT-Casp3WT protein shown in FIGS. 12A-B are explained in more detail as follows. FIG. 12A. […] Abscissa: TUNEL positive cells per high-powered microscopic field; Ctrl, control addition of PBS to cultures; error bars represent SD. FIG. 12B. […] Ctrl, control PBS addition; ocFAS crosslinking, positive control.
(§3) 1. […] See Lissy, N. A., et al. (supra). […] See Ezhevsky, S. A., et al. (supra). […] See Xiang, J., et al., (supra). […] See Xiang, J., et al., (supra). […] See Ezhevsky, S. A., et al. (supra).

Jurkat T cells [2] = test: FACS and confocal analysis of FITC-labeled TAT fusion proteins added to Jurkat T cells; assay type: cell-based; settings: for cells transduced: FITC-labeled protein added to media of Jurkat T cells
Experimental: To test the ability of TAT-Casp3 proteins to transduce into cells, TAT-Casp3 proteins were conjugated to fluorescein (FITC), then added directly to the media of Jurkat T cells and analyzed by Flow Cytometry (FACS) (FIGS. 9B-C). Both TAT-Casp3WT and TAT-Casp3MUT proteins rancidly transduced into ˜100% of cells, achieving maximum intracellular concentration in less than 20 min. In addition, based on the narrow peak width before and after addition of FITC labeled proteins, individual cells within the population contain near identical intracellular concentrations of TAT-Casp3-FITC protein. […] Thus, TAT-Casp3 proteins readily transduce into 100% of all cells inca rapid and concentration-dependent fashion.
The generation and transduction of TAT fusion proteins shown in FIGS. 9A-E are explained in more detail as follows: FIG. 9A. Diagram depicting HIV cleavage site sequences and domains of TAT fusion proteins. FIGS. 9B-D. FACS kinetic analysis of fluorescein (FITC) labeled TAT-Casp3WT, TAT-Casp3MUT and TAT-HIV Pr proteins added to cells at 0, 20 and 30 min. FIG. 9E. FACS dose analysis of 3, 6, and 12 nM TAT-Casp3WT-FITC protein added to cells at I hr post-addition. Note rapid, concentration-dependent transduction of all FITC labeled protein into ˜100% of cells and near identical intracellular concentration within the population as measured by FACS peak width of control vs. transduced cells.
as §3

[3] = tested on: Jurkat T cells infected with the NLHX strain of HIV-I; test: Cytotoxicity of TAT-Casp3 on HIV infected Jurkat cultures, exclusionary dye viability analysis; assay type: cell-based
Source text: To make this determination, Jurkat T cells were infected for 7-14 days with the NLHX strain of HIV-I and examined microscopically for HIV cytopathic effects. See Westervelt, P., et al., Identification of a determinant within the HIV-1 surface envelope glycoprotein critical for productive infection of cultured primary monocytes. Proc. Natl. Acad. Sci USA 88: 3097 (1991). At the start of each transduction experiment approximately 50% of the culture was HIV positive. HIV infected cultures were transduced for 16 hr with 100 nM TAT-Casp3WT or TATCasp3MUT protein and then assayed for cell viability (FIG. 13). […] In addition, we detected both the appearance of cells containing <2N DNA content and cells with condensed nuclei in TAT-Casp3 treated cells.
To determine if TAT-Casp3WT induced apoptosis was dependent on active HIV Protease in the infected cultures, HIV infected cultures were pretreated with 1 μg/ml Ritonavir prior to transduction with 100 nM TAT-Casp3WT protein (FIG. 5). […] In addition, the observed increased survival of Ritonavir treated cells is consistent with increased longevity of protease inhibitor treated HIV infected cells. See Coffin, J. M., et al. (supra).
The specific killing of HIV infected cells shown in FIG. 5 is explained in more detail as follows. Jurkat T cells were infected for 7-14 days with HIV strain NLHX, then transduced with TAT-Casp3WT (WT) or TAT-Casp3MUT (MUT) proteins for 16 hr and assayed for cell viability. […] Ctrl, control addition of PBS to cultures; abscissa, % viability of HIV positive cells in the population at start of transduction; error bars represent SD.
as §3

Jurkat T cells [4] = test: Cytotoxicity of TAT-Casp3 on uninfected Jurkat T cells, viability by Trypan Blue exclusion; settings: co-transduced with TAT-HIV Pr
Experimental: In addition, the ability of TAT-Casp3 protein to induce apoptosis in cells co-transduced with TAT-HIV Pr protein was tested. Jurkat T cells were treated with 100 nM TAT-Casp3WT or TATCasp3MUT proteins alone or in combination with 50 nM TAT-HIV Pr protein and assayed for cell viability 16 hr post-treatment (FIG. 11A). […] See Salvensen, G. S., et al., Henkart, P. A., Cohen, G. M., Woo, M., et al., Enari, M. et al., Liu, X., et al. (supra).
FIG. 11A Cultures of Jurkat T cells were transduced with combinations of TAT-Casp3WT (WT), TAT-Casp3MUT (MUT) and TAT-HIV Protease (Pr) proteins for 16 hr and analyzed for cell viability. […] FIG. 11B Cultures of Jurkat T cells were co-transduced with TAT-Casp3WT (WT), TAT-Casp3MUT (MUT) proteins in combination with TAT-HIV Pr (Pr) protein and analyzed for kinetics of cell viability as indicated.
1. Cell culture-p16(−) Jurkat T cells (ATCC) were grown as described. See Lissy, N. A., et al. (supra). For in vivo substrate cleavage, 1×10^6 cells were transduced with 100 nM TAT-p16, TAT-A-p16, TAT-Casp3MUT and/or 50 nM TAT-HIV Pr proteins for 1, 5 or 8 hr as indicated and analyzed by anti-p16 (Santa Cruz) or anti-Casp3 (Pharmingen) immunoblot analysis. See Ezhevsky, S. A., et al. (supra). For cytotoxicity of TAT-Casp3 on uninfected cells, 1×10^6 cells were transduced with 100 nM TAT-Casp3WT, TAT-Casp3MUT and/or 50 nM TAT-HIV Pr proteins for 16 hr and assayed for viability by Trypan Blue exclusion and/or genomic DNA damage by TUNEL assay (Trevigen). Number of TUNEL positive cells reported as per high-powered microscopic field with four fields per experiment averaged. TAT-Casp3 activity was measured by incubation of 20 μg of whole cell lysate with 50 μM DEVD-AFC and fluorescent AFC formation measured on a FL500 microplate fluorescence reader (Bio-Tek) as described. See Xiang, J., et al., (supra). Cells were preincubated with 1 μg/ml Ritonavir (Abbott Labs) for 1 hr prior to transduction. For cytotoxicity of TAT-Casp3 on infected cells, Jurkat cultures were infected with 100 ng p24 Ag equivalent NLHX HIV-I strain for 7-14 days, assayed microscopically for cytopathic effects, then replated at 1×10^6/ml and transduced with 100 nM of TAT-Casp3WT or TAT-Casp3MUT proteins for 16 hr followed by exclusionary dye viability analysis. Infected cells were pretreated with 1 μg/ml Ritonavir for 24 hr prior to transduction with TAT-Casp3WT protein. See Xiang, J., et al., (supra). For Flow Cytometry (FACS) analysis, fluorescein (FITC) conjugated TAT fusion proteins were added to Jurkat T cell culture media and 1×10^4 cells were analyzed by FACS as described. See Ezhevsky, S. A., et al. (supra).

[5] = tested on: caspase-3 activity (DEVD-AFC cleavage); test: Caspase-3 enzyme assay, cleavage of DEVD-AFC by whole cell lysate of transduced Jurkat T cells; assay type: cell-based; settings: 6 hr
Experimental: as §1, §2, §3

HIV Protease = target: T1, HIV Protease (Human immunodeficiency virus type 1 group M subtype B, UniProt P04585); test: In vivo substrate cleavage by co-transduced TAT-HIV Pr in Jurkat T cells, immunoblot; assay type: cell-based; settings: 100 nM substrate, 50 nM TAT-HIV Pr, Jurkat T cells, immunoblot
T1 construct: PCR cloning the HIV Protease gene from HXB2R HIV strain; 6xHis (from the pTAT vector) (N); made in house; the purified protein was added to Jurkat T cells
Experimental: To assay for in vivo cleavage, p 16(−) Jurkat T cells were transduced with 100 nM TAT-Ap16 or control TAT-p16 protein (no HIV cleavage site) alone or in combination with 50 nM TATHIV Pr fusion protein for 5 hr and analyzed by anti-p16 immunoblot for in vivo cleavage at the HIV A proteolytic cleavage site (FIG. 10A). […] Size analysis of the cleaved TAT-A-p 16 protein was consistent with retention of the residual HIV half site present on the N′ terminus of p 16 (FIG. 10A, see lane 4 vs. 5).
Further, the TAT-Casp3MUT protein was transduced in combination with TAT-HIV Pr protein into cells (FIG. 10B).
The in vivo processing in co-transduced cells shown in FIGS. 10A and 10B is explained in more detail as follows. FIG. 10A. Cultures of p16(−) Jurkat T cells were transduced with TAT-p 16 or TAT-A-p 16 substrate proteins in combination with TATHIV Pr proteins for 5 hr and subjected to anti-p 16 immunoblot analysis. […] WCE, HepG2 whole cell lysate containing wild type endogenous p16; A-p16, cleaved TAT-A-16 product retaining the HIV half site on p16. FIG. 10B. Cultures of Jurkat T cells were transduced with TATCasp3MUT protein (TAT-“D” site-p 17 domain-“A” site-p12 domain) alone or in combination with TAT-HIV Pr (Pr) protein as indicated and immunoblotted with anti-Caspase-3 antibodies specific for the p17 domain. TAT-D-p17-A, cleaved product of TAT-Casp3 containing the N′ terminal HIV A half site.
as §3

[6] = tested on: Jurkat T-cells infected by HIV; test: Cleavage of transduced p16 fusion proteins in HIV-infected Jurkat T-cells, Western/immunoblot with anti-p16 antibody; assay type: cell-based; settings: after 4, 8 and 12 hours
Experimental: Purified p16 fusion proteins were individually transduced into Jurkat T-cells infected by HIV. Methods for infecting the Jurkat T-cells with HIV and transducing fusion proteins are described in examples, which follow. After 4, 8 and 12 hours, the cells are analyzed for cleavage of the fusion protein by Western/immunoblot analysis using a commercially available anti-P16 antibody (Santa Cruz). As a control, the p16 cDNA was fused to the pTAT vector described in Example 1 to produce the vector shown in FIG. 3D (no HIV protease cleavage site). That vector encoded a p16 fusion protein fused to TAT that was not cleaved in the infected cells.

Molecule | TUNEL positive cells, protein transduced alone (Jurkat T cells [1]; 100 nM TAT-Casp3 or 50 nM TAT-HIV Pr) | TUNEL positive cells, co-transduced with TAT-HIV Pr (Jurkat T cells [1]; 100 nM plus 50 nM TAT-HIV Pr) | dose analysis of protein transduction (Jurkat T cells [2]; 3, 6 and 12 nM, 1 hr post-addition, at equilibrium) | intracellular localisation by confocal microscopy (Jurkat T cells [2]; FITC-labeled protein) | cells transduced (Jurkat T cells [2]) | effect on viability of HIV positive cells ([3]; 100 nM, 16 hr, cultures approximately 50% HIV positive) | appearance of cells containing <2N DNA content and cells with condensed nuclei ([3]; HIV infected cultures) | appearance of cells containing <2N DNA content (Jurkat T cells [4]) | earliest detection of cellular death post-transduction (Jurkat T cells [4]) | kinetic analysis of cell death (shape of curve) (Jurkat T cells [4]) | caspase activity, co-transduced with TAT-HIV Pr ([5]; 100 nM plus 50 nM TAT-HIV Pr) | caspase activity, protein transduced alone [5] | cleavage at the HIV cleavage site when co-transduced with TAT-HIV Pr (HIV Protease) | cleavage of the fusion protein in HIV-infected cells [6]
TAT-Casp3WT: TAT-D site-p17-A site-p12 modified Caspase-3 fusion protein, Pro domain replaced by TAT transduction domain (protein, left off: small tags and cut ends, TAT-D site-p17-A site-p12 modified Caspase-3 fusion protein, Pro domain replaced by TAT transduction domain) GRKKRRQRRRGYPYDVPDYACTERQANFLGKIWPGISLDNSYKMDYPEMGLCIIINNKNFHKSTGMTSRSGTDVDAANLRETFRNLKYEVRNKNDLTREEIVELMRDVSKEDHSKRSSFVCVLLSHGEEGIIFGTNGPVDLKKITNFFRGDRCRSLTGKPKLFIIQACRGTELDCGIETSQVSQNYPIVQNLQGVDDDMACHKIPVEADFLYAYSTAPGYYSWRNSKDGSWFIQSLCAMLKQYADKLEFMHILTRVNRKVATEFESFSFDATFHAKKQIPCIVSMLTKELYFYH | only background levels; also recorded: remained at background levels | marked increase; also recorded: specific TUNEL positive cells | concentration-dependency | both cytoplasmic and nuclear compartments | ~100% | dramatic loss of HIV positive cells; also recorded: efficiently kills a large percentage of HIV positive cells | detected | detected | 4 h | linear killing curve | marked increase in caspase activity that was greater than αFAS treatment; also recorded: specific activation of caspase-3 activity | only background levels | – | –
TAT-p16: control TAT-p16 fusion protein with no HIV cleavage site (protein, left off: small tags and cut ends, control TAT-p16 fusion protein with no HIV cleavage site) GRKKRRQRRRGMEPAAGSSMEPSADWLATAAARGRVEEVRALLEAGALPNAPNSYGRRPIQVMMMGSARVAELLLLHGAEPNCADPATLTRPVHDAAREGFLDTLVVLHRAGARLDVRDAWGRLPVDLAEELGHRDVARYLRAAAGGTRGSNHARIDAAEGPSDIPD | – | – | – | – | 100% | – | – | – | – | – | – | – | not cleaved | not cleaved

From patent US6645501B2, “Anti-pathogen system and methods of use thereof” (Washington University, priority 1997, dated 2003)
